T1: human GFRα3 on HEK293/hGFRα3/hRET/SRE-luc cells (human, UniProt O60609 32-382)
T1 sequence: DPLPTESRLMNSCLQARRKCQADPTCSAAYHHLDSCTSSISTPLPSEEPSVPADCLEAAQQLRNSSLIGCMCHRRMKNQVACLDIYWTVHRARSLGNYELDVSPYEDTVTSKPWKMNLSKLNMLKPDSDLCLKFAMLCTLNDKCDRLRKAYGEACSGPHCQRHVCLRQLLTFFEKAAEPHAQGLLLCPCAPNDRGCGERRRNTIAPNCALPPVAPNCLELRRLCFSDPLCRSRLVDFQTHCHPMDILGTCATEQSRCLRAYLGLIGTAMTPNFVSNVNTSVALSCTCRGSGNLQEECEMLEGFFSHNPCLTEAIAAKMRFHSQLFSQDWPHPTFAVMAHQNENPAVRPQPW


Experiments:
[1] = target: T2, human GFRα3 expressed with a C-terminal myc-myc-hexahistidine tag (human, UniProt O60609 32-374, biotinylated (sites not given) in ELISA format 2 and in the Octet cross-competition; not in SPR); assay: SPR, Ab captured, 25C
T2 construct: also called hGFRα3-mmh; hGFRα3-mmH
T2 sequence (O60609 other isoform, or with tags, fused parts or gaps limits assumed): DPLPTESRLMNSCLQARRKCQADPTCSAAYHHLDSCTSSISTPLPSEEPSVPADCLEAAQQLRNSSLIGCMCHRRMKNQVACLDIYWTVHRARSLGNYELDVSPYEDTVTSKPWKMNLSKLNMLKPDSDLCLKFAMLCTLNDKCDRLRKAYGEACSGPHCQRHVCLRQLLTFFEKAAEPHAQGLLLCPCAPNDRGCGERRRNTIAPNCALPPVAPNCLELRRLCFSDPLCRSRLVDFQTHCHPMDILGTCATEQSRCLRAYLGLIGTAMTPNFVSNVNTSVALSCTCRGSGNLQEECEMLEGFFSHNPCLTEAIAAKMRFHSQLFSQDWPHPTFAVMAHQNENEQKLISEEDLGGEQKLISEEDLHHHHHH
Method in brief: (§1)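 Rate constants (ka, kd) came from 1:1 fits of 3-fold analyte dilution series (100–3.7 nM Fc-tagged, 200–7.4 nM mmh-tagged) flowed over antibody captured via anti-IgG on CM5. Buffers were HBS-EP or PBS with 0.05% P20, pH 7.4. KD and half-life were derived from kd/ka and ln2/(60*kd).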

[2] = target: T2, human GFRα3 expressed with a C-terminal …; assay: Octet cross-competition; biotin-hGFRα3-mmH pre-saturated with first antibody H4H2243N2
Experimental: (§2) A cross-competition assay was conducted to assess the ability of select antibodies to compete with one another for binding to human GFRα3 using an Octet RED384 biosensor (Fortebio Inc.). The entire experiment was performed at 25° C. with the flow rate of 1000 rpm in Octet HBST buffer (0.01 M HEPES pH7.4, 0.15M NaCl, 3 mM EDTA, 0.05% v/v Surfactant P20, 0.1 mg/mL BSA). To assess whether 2 antibodies were able to compete with one another for binding to their respective epitopes on biotinylated recombinant human GFRα3 expressed with a C-terminal myc-myc-hexahistidine tag (biotin-hGFRα3-mmH; SEQ ID:370), around ˜1.2 nm of biotin-hGFRα3-mmH was first captured onto streptavidin-coated Octet sensor tips (Fortebio Inc, #18-5019) by submerging the tips for 1 minute into a 10 μg/mL solution of biotin-hGFRα3-mmH. The antigen coated sensor tips were then placed into wells containing 25 μg/mL solution of a first anti-GFRα3 monoclonal antibody for 4 minutes to saturate the biotin-hGFRα3-mmH surface. The sensor tips were then subsequently dipped into wells containing 25 μ/mL solution of a second anti-GFRα3 monoclonal antibody. The sensor tips were washed in Octet HBST buffer in between every step of the experiment. The real-time binding response was monitored during the course of the experiment and the binding response at the end of every step was recorded as shown in FIG. 9. The response of mAb-2 binding to biotin-hGFRα3-mmH pre-complexed with the first antibody was compared and competitive/non-competitive behavior of different anti-GFRα3 monoclonal antibodies was determined.

[3] = target: T2, human GFRα3 expressed with a C-terminal …; assay: SPR, Ab captured, 37C
Method in brief: as §1

[4] = target: T2, human GFRα3 expressed with a C-terminal …; assay: Octet cross-competition; biotin-hGFRα3-mmH pre-saturated with first antibody H4H2292S
Experimental: as §2

[5] = target: T1, human GFRα3 on …; assay: cell-based or functional assay
[6] = target: T2, human GFRα3 expressed with a C-terminal …; assay: Octet cross-competition; biotin-hGFRα3-mmH pre-saturated with first antibody H4H2352S
Experimental: as §2

[7] = target: T2, human GFRα3 expressed with a C-terminal …; assay: Octet cross-competition; biotin-hGFRα3-mmH pre-saturated with first antibody H4H2296S
Experimental: as §2

| Kd [1] [nM] | koff [1] [s⁻¹] | kon [1] [M⁻¹ s⁻¹] | t1/2 [1] [h] | binding response of second antibody (nm) [2] [nm] | Kd [3] [nM] | koff [3] [s⁻¹] | kon [3] [M⁻¹ s⁻¹] | t1/2 [3] [h] | binding response of second antibody (nm) [4] [nm] | IC50 (SRE-luc, HEK293/hGFRα3/hRET cells, 100 pM hARTEMIN-mmH) [5] [nM] | binding response of second antibody (nm) [6] [nm] | binding response of second antibody (nm) [7] [nm] | Binder |
| --- | --- | --- | --- | --- | --- | --- | --- | --- | --- | --- | --- | --- | --- |
| 2.92 | 0.00078 | 267000 | 0.25 | 0.06 | 5.2 | 0.00244 | 469000 | 0.0833 | 1.91 | 0.3 | 0.13 | 0.06 | H4H2243N2 (antibody, human IgG4, V domains shown, human IgG4 Fc (H4H)) VH: QVQLVQSGAEVKKPGASVKVSCKASGYTFTSYGIIWVRQAPGQGLEWMGWISGYNGNTNYAQNLQGRVTMTTDTSTTTAYMELRSLRSDDTAVYYCARWGIATRPYYYYGMDVWGQGTTVTVSS VL: DIQMTQSPSSLSASVGDRVTITCRASQDITNYLAWFQQKPGKAPKSLIYAASSLQSGVPSKFSGSGSGTDFTLTISSLQPEDFATYYCQQYNSYPPTFGPGTKVDIK |
| 0.082 | 5.81e-05 | 709000 | 3.32 | 0.46 | 0.118 | 0.000139 | 1.18e+06 | 1.38 | 0.34 | 0.92 | 0.1 | 2.01 | H4H2352S (antibody, human IgG4, V domains shown, human IgG4 Fc (H4H); also called H4H2352S-1) VH: EVQLVQSGAEVKKPGASVKVSCKASGYTFTNYGITWVRQAPGQGLEWMGWISAYNGNTGYAQKFQGRVTMTTDTSTSTAYMELRSLRSDDTAVYYCAREDYDFWRAFDIWGQGTMVTVSS VL: EIVLTQSPGTLSLSPGERATLSCRASQSVSSTYLAWLQQKPGQAPRLLIYGASSRATGIPDRFSGSGSGTDFTLTINRLEPEDFAVYYCQQYAYSPYTFGQGTKLEIK |
| 0.483 | 5.19e-05 | 108000 | 3.72 | 1.7 | 1.94 | 0.000249 | 128000 | 0.767 | 0.11 | 4.6 | 0.15 | 1.87 | H4H2292S (antibody, human IgG4, V domains shown, human IgG4 Fc (H4H)) VH: EVQLVESGGGVVQPGRSLRLSCAASGFTFSSYGMHWVRQAPGKGLEWVSFIWYDGSNKYYADSVKGRFTISRDNSKNTLYLQMNSLTAEDTAVYYCARRGILTGTTAFDIWGQGTMVTVSS VL: DIQMTQSPSSLSASVGDRVTITCRASQSISSYLNWYQQKPGKAPKLLIYAASSLQSGVPSRFSGSGSGTDFTLTIRSLIPEDFATYYCQQTYNTPFTFGPGTKVEIK |

Reference: patent US20140056903A1 (Regeneron, published 2014)
